Results on one substance are retold here after paper PMC7393090.

For the experiment, the target named is tau Venus BiFC constructs (UniProt P10636). Kind of experiment: split reporter (BiFC, NanoBiT); Venus BiFC; co-culture of HEK293 cells transfected with the VN construct and cells transfected with the VC construct (50,000 cells each per ml, 48 h); flow cytometry, cells above 120 fluorescence units are positive; also run after treatment with anle138b 1 µM, EGCG 0.1 µM, fulvic acid 37 µM or dynasore 10 µM. For orientation: A flow cytometer gives signals particle by particle.

The substance “tau Venus BiFC constructs (from UniProt P10636 1-758) (natural protein)” registered a percent of BiFC positive cells (co-culture) of 3.9%.
